Experimental findings from paper PMC8615749, “Human Parainfluenza Virus 3 Phosphoprotein Is a Tetramer and Shares Structural and Interaction Features with Ebola Phosphoprotein VP35” (Biomolecules, 2021) are described below.

Data set [1] addresses T1, LC8 (DYNLL1), recombinant (human, UniProt P63167 1-89).
T1 construct: also called human LC8
In words: ITC. Conditions: both partners purified.

The data set “SEC-MALS” concerns the molecule itself. In words: SEC-MALS.

T1 sequence (P63167 whole entry): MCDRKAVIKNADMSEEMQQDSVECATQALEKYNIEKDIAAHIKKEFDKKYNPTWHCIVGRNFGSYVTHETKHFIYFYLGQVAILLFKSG

B1: PMDL, recombinant construct of the human parainfluenza virus 3 phosphoprotein (HPIV3 P): short P_TAI (domain or fragment)
chain: SDHKPTSKGQKKISKTTTTNTDTKGQTETQTESSETQSNVDTASKIDFLAGLVIGVSMDNDTKLIQIQNEMLNLKADLKRMDESHRRLIENQREQLSLITSLISNLKIMT
notes: source: E. coli Rosetta DE3, purified (TALON His-Tag resin, SEC Superdex 75)
Regarding B1, the Kd (commonly the equilibrium constant for the complex coming apart) in data set [1] is about 50 µM. For the same molecule, the stoichiometry N (usually a count of units in the complex or per binding partner) in “SEC-MALS” was 4.

B2: Zaire Ebolavirus (EBOV) phosphoprotein VP35, construct of residues 65-145 (LC8 anchor 65-82 and mult (domain or fragment)
chain: NPKTRNSQTQTDPICNHSFEEVVQTLASLATVVQQQTIASESLEQRITSLENGLKPVYDMAKTISSLNRVCAEMVAKYDLL
notes: also called VP35 65-145; EBOV VP35 65-145
Consider B2, for which the Kd in data set [1] is 0.13 µM. In addition, the “stoichiometry N” value in “SEC-MALS” was found to be 4.
